# Results: the nanobody polyreactivity screen of Harvey et al. (2022)
# Experiment: yeast display, Sf9 membrane polyspecificity reagent, FACS + sequencing; frameworks hold sequencing errors
# Outline: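 Using colony PCR, genes from sorted yeast display clones were amplified, then sequenced on MiSeq at 2 × 250 and filtered by CDR length. The clones had been stained with 10% biotinylated, detergent-solubilized Sf9 membrane reagent for 1 hour at 4 °C and sorted by FACS into low and high (top ~1%) gates on anti-HA and streptavidin fluorescence. Polyreactivity labels come from the gate of origin.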
row,Sequence,polyreactivity (PSR sort gate)
1,QVQLVESGGGLVQAGGSLRLSCAASGRIFLDYAMGWYRQAPGKERELVAAIRYSGVGTYYADSVKGRFTISRDNAKNTVYLQMNSLKPEDTAVYYCNAVTKVGYLRRRDYWGQGTQVTVSS,high polyreactivity
2,QVQLVESGGGLVQAGGSLRLSCAASGRIFLFYAMGWYRQAPGKERELVAAISSTDDTYYADSVKGRFTISRDNAKNTVYLQMNSLKPEDTAVYYCAAYSIISQSEMYYWGQGTQVTVSS,low polyreactivity
3,QVQLVESGGGLVQAGGSLRLSCAASGRIFLINAMGWYRQAPGKERELVAAITVSGTRTYYADSVKGRFTISRDNAKNNVYLQMNSLKPEDTAVYYCAAKLQYRWTCGYYYWGQGTQVTVSS,high polyreactivity
4,QVQLVESGGGLVQAGGSLRLSCAASGRIFLINAMGWYRQAPGKESEFVAAIRTGGNTYYADSVKGRFTLSRDNAKNTVYLQMNSLKPEDTAVYYCAADRIYPYYRWSGAHRSDVDYWGQGTQVTVSS,low polyreactivity
5,QVQLVESGGGLVQAGGSLRLSCAASGRIFLKYTLGWYRQAPGKERELVAAISRGGSTYYADSVKGRFTISRDNAKNTVYLQMNSLKPEDSAVYYCAATSYRRTGYNYWGQGTQVTVSS,high polyreactivity
6,QVQLVESGGGLVQAGGSLRLSCAASGRIFLKYTMGLYRQAPGKERELVAAISRGGSTYYADSVKGRFTISRDNAKNTVYLQMNRLKPEDTAVYYCAATSYRRTGYNYWGQGTQVTVSS,high polyreactivity
7,QVQLVESGGGLVQAGGSLRLSCAASGRIFLQYAMGWYRPAPGKERELVAAISRSGGSTYYADSVKGRFTISRDTAKNSVYLQMNSQKPEDTAVYYCAAALFGNRYYYWGQGTQVTVSS,low polyreactivity
8,QVQLVESGGGLVQAGGSLRLSCAASGRIFLQYAMGWYRQAPGKERELVAGISLRGGSTYYADSVKGRFTISRDNAKNTVYLQMNSLKPEDTAVYYCAADVIVTVETNTSGPSFTEYDYWGQGTQVTVSS,low polyreactivity
9,QVQLVESGGGLVQAGGSLRLSCAASGRIFLRNAMGWYRQAPGKERELVATITSRGGSTYYADSVKGRFTISRDNAKNTVYLQMNSLKQEDTAVYYCAADPRRYRGFGYVYGGFYYWGQGTQVTVSS,low polyreactivity
10,QVQLVESGGGLVQAGGSLRLSCAASGRIFLRYAMGWYRQAPGKERELVAVISSGGSTYYADSVKGRFTISSDNAKNTVYLQMNSLKPEDSAVYYCAASRHDSRYQYDYWGQGTQVTVSS,high polyreactivity
11,QVQLVESGGGLVQAGGSLRLSCAASGRIFLRYTMGWYRQAPGKDRELVAAISGGGSTNYADSVKGRFTISRDNAKNTVYLQMNSLKPEDTAVYYCAADYIWLSHPYRRVDFYYWGQGTQVTVSS,low polyreactivity
12,QVQLVESGGGLVQAGGSLRLSCAASGRIFLSNALGWYRQAPGKERELVAAINSGGNTDYADSVKGRFTISRDNAKNTVYLQMNSLKPEDTAVYYCAADAFSWDHDYWGQGTQVTVSS,low polyreactivity
13,QVQLVESGGGLVQAGGSLRLSCAASGRIFLTYAMGWYRPAPGKERELVAAIRSRSGTTYYADSVKGRFTISRDNAKNTVYLQMNRLKPEDTAVFYCAAGGKSRSYYWGQGTQVTVSS,high polyreactivity
14,QVQLVESGGGLVQAGGSLRLSCAASGRIFLVNAMGWYRQAPGKERELVAAINGSGGSTYYADSVKGRFTISRDNAKNTVYLQMNSLKPEDTAVYYCAAKYVYSVGNYRYDYWGQGTQVTVSS,low polyreactivity
15,QVQLVESGGGLVQAGGSLRLSCAASGRIFLVNAMGWYRQAPGKERELVAAISWSSGSTYYADSVKGSITISRDNAKNTVYLQMNSLKPEDTAVYYCAADGSSRGRYRYGYWGQGTQVTVSS,high polyreactivity
16,QVQLVESGGGLVQAGGSLRLSCAASGRIFLVYAMGWYRQAPGKERELVAAISWRGGRTYYADSVKGRFTISRDNAKNTFYLQMNSLKPEDTAVYYCAAASKYSQFEYDYWGQGTQVTVSS,high polyreactivity
17,QVQLVESGGGLVQAGGSLRLSCAASGRIFLVYAMGWYRQAPGKERELVAAISYSGGRTYYADSVKGRFTISRDNAKNTVYLQMNSLKPEDTAVYYCAAKRITYYGGGRFYYWGQGTQVTVSS,high polyreactivity
18,QVQLVESGGGLVQAGGSLRLSCAASGRIFLWYAMGWYRQAPGKERELVASITRSGVTTYYADSVKGRFTISRDNAKNTVYLQMNSLKPEDTAVYYCNKDFRGDAIKLDVNYWGQGTQVTVSS,low polyreactivity
19,QVQLVESGGGLVQAGGSLRLSCAASGRIFLYNAMGWYRQAPGKERELVAAITSSGSSTYYADSVKGRFTISRDNAKNTVYLQMNSLKPEDTAVYYCNRYTRKTRRVDYWGQGTQVTVSS,high polyreactivity
20,QVQLVESGGGLVQAGGSLRLSCAASGRIFLYYAMGWYRQAPGKERELVAAISRRGASTYYADSVKGRFTITRDNAKNNVYLQMHSLKPEDTAVYYCGTVPGKSGDYWGQGTQLTVSS,high polyreactivity
21,QVQLVESGGGLVQAGGSLRLSCAASGRIFMNYDMGWYRQPPGKERELVADISISGSTDYADSVKGRFTISRDNAKNTVYLQMNSLKPEDTAVYYCATSFYVSDYYVPYEMGYWGQGTQVTVSS,low polyreactivity
22,QVQLVESGGGLVQAGGSLRLSCAASGRIFNAYATGWYRKAPGKERELVAAISSIGGRTYYADSVKGRFTISRDNAKNTVYLQMNSLKPEETAVYYCAARRRSRQYRYDYWGQGTQVTVSS,high polyreactivity

row,Sequence,polyreactivity (PSR sort gate)
1,QVQLVESGGGLVQAGGSLRLSCAASGRIFNDYAMGWYRPAPGKESELVANYADSVKGRFTISRDNAKNTVYLQMNSLKPEDTAVFYCAADFPSFPDFRPEYDYWGQGTQVTVSS,low polyreactivity
2,QVQLVESGGGLVQAGGSLRLSCAASGRIFNEYGMGWYRQAPGKERELVAAITWGGGSTYYADSVKGRFTISRDNAKNTVYVQMNSLKPEDTAVYYCNAVSERPIPWYYYWGQGTQVTVSS,low polyreactivity
3,QVQLVESGGGLVQAGGSLRLSCAASGRIFNFYAMGWYRQAPGKERELVASITSGGRTSYADSVKGRFTISRDNAKNTVYLQMNSLKPEDTAVYYCAAVLFGYPRTIGTWYDRYYYWGQGTQVTVSS,high polyreactivity
4,QVQLVESGGGLVQAGGSLRLSCAASGRIFNGNAMGWYRQAPGKEREFVAAITWNGGRTYYADSVKGRFTISRDYAKNTVYLQMNSLKPEDTAVYYCNADPYHRRSSGDYWGQGTQVTVSS,high polyreactivity
5,QVQLVESGGGLVQAGGSLRLSCAASGRIFNGNAMGWYRQAPGKERELVAAISTSGGRTYYADSVKGRFTISRDNAKNTVYLQMNSLKPEDTAVYYCAARYFRRDYIDYDYWGQGTQVTVSS,low polyreactivity
6,QVQLVESGGGLVQAGGSLRLSCAASGRIFNGNAMGWYRQAPGKERELVAAISVSGGSTYYADSVKGRFTISRDNAKNTVYLQMNSLKPEDTAVYYCAARTSSYSFPYAYNYWGQGTQVTVSS,high polyreactivity
7,QVQLVESGGGLVQAGGSLRLSCAASGRIFNGYAMGWYRQAPGKERELVAAINSSGGSTYYADSVKGRFTISRDNAKNTVYLQMNSLKPEDTAVYYCARVSYHYRTYDYWGQGTQVTVSS,high polyreactivity
8,QVQLVESGGGLVQAGGSLRLSCAASGRIFNIYALGWYRQAPGKERELVAAISGSGSTYYADSVKGRFTISRDNAKNTVYLQMNSLKPEDTAVYYCAARSLVRYYHNANYYPYYYWGQGTQVTVSS,high polyreactivity
9,QVQLVESGGGLVQAGGSLRLSCAASGRIFNKYTMGWYRQAPGKERELVAAIRGRGGSTYYADSVKGRFTISRDNAKNTVYLQMNSLKPEDTAVYYCAADSGPFYSKTPTRYGYWGQGTQVTVSS,high polyreactivity
10,QVQLVESGGGLVQAGGSLRLSCAASGRIFNPNAMGWYRQAHGKESELVAAISGSGGSTYYADSVKGRFTISRDNAKNTVNLQMNSLKPEDTAVYYCNKLLSQRRYHSEMDYWGQGTQVTVSS,high polyreactivity
11,QVQLVESGGGLVQAGGSLRLSCAASGRIFNTYAMGWYRQAPGKERELVAAISWRGVSTYYADSVKGRFTISRDNAKNTVYLQMNSLKAEDTAVYYCAALPFWWGGYWGQGTQVTVSS,high polyreactivity
12,QVQLVESGGGLVQAGGSLRLSCAASGRIFNTYAMGWYRQAPGKERELVARITWSAGRTYYADSVKGRFTISRDNAKNTVYLQMNSLKPEDTAVYYCAAEGFYRSSPVRTYIGYDYWGQGTQVTVSS,high polyreactivity
13,QVQLVESGGGLVQAGGSLRLSCAASGRIFNYNAMGWYRQAPGKERELVAVITSGDSTNYADSVKGRFTISRDNAKNTVYLQMNSLKPEDTEVYYCAAEYYSIRYGPHSIEVYGMDYWGQGTQVTVSS,low polyreactivity
14,QVQLVESGGGLVQAGGSLRLSCAASGRIFNYYAMGWYRQAPGKARELVAAISGSGGRTYYADSVKGRFTISRDNAKNTVYLQMNSLKPEDTAVYYCAADGVDGYDYWGQGTQVTVSS,high polyreactivity
15,QVQLVESGGGLVQAGGSLRLSCAASGRIFNYYAMGWYRQAPGKERELVAGISGSGTSTYYADSVKGRFTISRDNAKNTVYLQMNSLKPEDTAVYYCAADVFRDDVWLDYWGQGTQVTVSS,low polyreactivity
16,QVQLVESGGGLVQAGGSLRLSCAASGRIFNYYAMGWYRQAPGKERELVATISRNGGRTYYADSVKGRFTISRDNAKNTVYLQMNSLKPEDTAVYYCATDGLYRYDYWGQGTQVTVSS,high polyreactivity
17,QVQLVESGGGLVQAGGSLRLSCAASGRIFNYYAMGWYRQATGKERELVARIDASGDSTYYADSVKGRFTISRDNAKNTVYLQMNSLKPEDTAVYYCNKDYLYSYLWGWKVYSYDYWGQGTQVTVSS,low polyreactivity
18,QVQLVESGGGLVQAGGSLRLSCAASGRIFPANAMGWYRQAPWKERELVAAISSTGGSTYYADSVKGRFTISRDNAKNSVYLQMKSLKPEDTAVYYCAKVHYRWPRVTWPNVWWSFEYWGQGTQVSVSS,low polyreactivity
19,QVQLVESGGGLVQAGGSLRLSCAASGRIFPAYAMGWYRQAPGKERELVAAISWTGTSTYYADSVKGRFTISRDNAKNTVYLQMNSLKPEDTAVYYCAARSYRLRSAYNYWGQGTQVTVSS,high polyreactivity
20,QVQLVESGGGLVQAGGSLRLSCAASGRIFPDNAMGWYRQAPGKERELVASITSGASTNYADSVKGRFTISRDNAKNTVFLQMNSLKPEDTAVYYCAAGYSYYDDYDYWGQGTQVTVSS,high polyreactivity
21,QVQLVESGGGLVQAGGSLRLSCAASGRIFPDNAMGWYRQARGKERELVAAMTYSGGSTSYADSVKGRFTISRDNAKNTVYLQMNSLKPEDTAVYYCNKGGGTSYDYVRVDKYPGDYWGQGTQVTVSS,low polyreactivity
